Publication PMC4615246
Like-named read-outs stand apart in the source and are kept apart here. One block for each substance: values may come before it.

Experiments:
Assay in all cases: LacI/LacO array recruitment in cells
LacI-CFP-sPom121 (human) [1] = target: LacI-CFP-sPom121 (human) (UniProt Q96HA1)
LacI-CFP-Nup153 (human) = LacI-CFP-Nup153 (human) (UniProt P49790)
LacI-CFP-mNup85 (mouse) = LacI-CFP-mNup85 (mouse) (UniProt Q8R480)
LacI-CFP-Nup53 (human) = LacI-CFP-Nup53 (human) (UniProt Q8NFH5)
LacI-CFP-Nup50 (human) = LacI-CFP-Nup50 (human) (UniProt Q9UKX7)
LacI-CFP-Nup214 (human) [2] = target: LacI-CFP-Nup214 (human) (UniProt P35658)
Sequence of LacI-CFP-Nup214 (human) (P35658 whole entry): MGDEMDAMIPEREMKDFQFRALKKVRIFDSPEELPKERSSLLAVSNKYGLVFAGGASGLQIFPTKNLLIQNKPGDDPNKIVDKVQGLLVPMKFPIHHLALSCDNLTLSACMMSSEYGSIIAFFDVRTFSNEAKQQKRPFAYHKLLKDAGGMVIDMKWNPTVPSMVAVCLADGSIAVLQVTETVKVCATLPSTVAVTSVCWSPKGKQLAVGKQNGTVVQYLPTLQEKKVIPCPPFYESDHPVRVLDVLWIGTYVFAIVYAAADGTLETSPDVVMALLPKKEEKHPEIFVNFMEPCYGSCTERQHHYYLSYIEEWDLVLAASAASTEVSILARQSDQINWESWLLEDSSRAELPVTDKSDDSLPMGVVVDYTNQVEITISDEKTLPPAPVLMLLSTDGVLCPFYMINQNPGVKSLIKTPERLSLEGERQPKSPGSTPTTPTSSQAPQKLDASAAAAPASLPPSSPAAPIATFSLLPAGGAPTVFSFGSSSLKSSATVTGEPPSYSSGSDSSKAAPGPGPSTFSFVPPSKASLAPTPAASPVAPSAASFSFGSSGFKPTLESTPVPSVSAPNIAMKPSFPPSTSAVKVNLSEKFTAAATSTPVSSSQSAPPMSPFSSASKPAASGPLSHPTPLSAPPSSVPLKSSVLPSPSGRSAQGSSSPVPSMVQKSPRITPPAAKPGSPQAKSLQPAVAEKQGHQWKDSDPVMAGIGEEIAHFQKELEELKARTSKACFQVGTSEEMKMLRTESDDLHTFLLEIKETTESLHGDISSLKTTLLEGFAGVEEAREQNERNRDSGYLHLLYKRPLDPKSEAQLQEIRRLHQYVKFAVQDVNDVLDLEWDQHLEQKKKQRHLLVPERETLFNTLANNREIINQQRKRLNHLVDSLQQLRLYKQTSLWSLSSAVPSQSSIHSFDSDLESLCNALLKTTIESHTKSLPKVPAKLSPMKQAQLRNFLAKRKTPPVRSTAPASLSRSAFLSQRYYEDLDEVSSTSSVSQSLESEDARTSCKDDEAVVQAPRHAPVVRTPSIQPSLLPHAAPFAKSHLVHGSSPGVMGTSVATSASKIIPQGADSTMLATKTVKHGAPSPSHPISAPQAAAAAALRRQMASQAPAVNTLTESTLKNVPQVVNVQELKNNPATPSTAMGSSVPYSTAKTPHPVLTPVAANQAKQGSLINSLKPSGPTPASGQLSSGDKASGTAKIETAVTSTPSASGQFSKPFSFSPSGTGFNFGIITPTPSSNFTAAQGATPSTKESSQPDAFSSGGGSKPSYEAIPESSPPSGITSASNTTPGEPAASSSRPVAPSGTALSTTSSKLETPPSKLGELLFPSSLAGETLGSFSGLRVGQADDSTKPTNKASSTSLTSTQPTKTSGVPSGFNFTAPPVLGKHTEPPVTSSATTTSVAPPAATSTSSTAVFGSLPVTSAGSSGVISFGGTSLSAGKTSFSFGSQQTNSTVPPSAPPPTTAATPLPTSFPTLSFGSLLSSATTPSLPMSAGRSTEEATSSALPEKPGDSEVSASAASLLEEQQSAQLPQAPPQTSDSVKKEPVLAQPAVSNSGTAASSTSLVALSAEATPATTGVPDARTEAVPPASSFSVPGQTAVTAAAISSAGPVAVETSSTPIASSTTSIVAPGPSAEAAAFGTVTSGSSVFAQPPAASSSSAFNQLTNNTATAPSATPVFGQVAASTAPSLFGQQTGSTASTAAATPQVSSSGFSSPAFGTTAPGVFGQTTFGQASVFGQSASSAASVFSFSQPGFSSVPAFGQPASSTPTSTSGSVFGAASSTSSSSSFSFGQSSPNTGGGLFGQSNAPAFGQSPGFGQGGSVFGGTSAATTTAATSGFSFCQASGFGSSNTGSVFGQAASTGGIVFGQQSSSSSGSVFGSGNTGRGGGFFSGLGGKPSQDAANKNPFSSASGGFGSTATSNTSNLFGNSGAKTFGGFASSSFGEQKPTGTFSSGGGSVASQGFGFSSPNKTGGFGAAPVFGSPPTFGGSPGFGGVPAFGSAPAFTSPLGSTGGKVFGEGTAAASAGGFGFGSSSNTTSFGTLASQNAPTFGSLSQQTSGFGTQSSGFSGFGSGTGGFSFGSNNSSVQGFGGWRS

LacI-CFP-Nup107 (human) = LacI-CFP-Nup107 (human) (UniProt P57740)
LacI-CFP-Nup58 (human) = LacI-CFP-Nup58 (human) (UniProt Q9BVL2)
LacI-CFP-Nup133 (human) = LacI-CFP-Nup133 (human) (UniProt Q8WUM0)
Sequence of LacI-CFP-Nup133 (human) (Q8WUM0 whole entry): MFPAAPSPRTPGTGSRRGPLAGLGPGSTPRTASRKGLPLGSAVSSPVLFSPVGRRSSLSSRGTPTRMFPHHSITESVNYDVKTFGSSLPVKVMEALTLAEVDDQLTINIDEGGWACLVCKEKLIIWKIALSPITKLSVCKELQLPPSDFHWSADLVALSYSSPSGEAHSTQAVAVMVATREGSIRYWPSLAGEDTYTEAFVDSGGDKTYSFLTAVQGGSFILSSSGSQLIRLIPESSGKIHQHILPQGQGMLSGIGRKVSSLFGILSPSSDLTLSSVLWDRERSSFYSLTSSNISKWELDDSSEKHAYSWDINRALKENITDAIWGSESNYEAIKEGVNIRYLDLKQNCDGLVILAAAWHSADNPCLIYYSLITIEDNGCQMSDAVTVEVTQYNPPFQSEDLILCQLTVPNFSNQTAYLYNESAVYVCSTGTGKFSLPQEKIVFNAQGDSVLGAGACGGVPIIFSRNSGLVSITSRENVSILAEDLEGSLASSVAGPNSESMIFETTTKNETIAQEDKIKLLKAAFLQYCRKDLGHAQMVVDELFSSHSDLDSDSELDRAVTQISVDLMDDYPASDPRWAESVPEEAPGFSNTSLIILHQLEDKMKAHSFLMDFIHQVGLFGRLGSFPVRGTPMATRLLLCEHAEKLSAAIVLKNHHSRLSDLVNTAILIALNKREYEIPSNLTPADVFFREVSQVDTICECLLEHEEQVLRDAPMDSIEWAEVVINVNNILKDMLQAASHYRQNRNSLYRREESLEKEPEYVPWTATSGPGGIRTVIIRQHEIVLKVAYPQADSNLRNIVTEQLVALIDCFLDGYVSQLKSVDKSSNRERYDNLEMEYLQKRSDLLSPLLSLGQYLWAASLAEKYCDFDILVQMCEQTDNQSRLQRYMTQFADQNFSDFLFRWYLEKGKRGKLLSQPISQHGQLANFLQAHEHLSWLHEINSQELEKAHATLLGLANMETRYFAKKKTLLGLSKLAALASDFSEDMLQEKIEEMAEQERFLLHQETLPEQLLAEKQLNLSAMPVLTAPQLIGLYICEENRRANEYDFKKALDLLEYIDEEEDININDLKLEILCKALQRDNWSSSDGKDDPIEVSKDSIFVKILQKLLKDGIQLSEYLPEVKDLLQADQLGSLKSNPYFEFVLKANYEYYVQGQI

LacI-CFP-Nup98 (human) = LacI-CFP-Nup98 (human) (UniProt P52948)
LacI-CFP-Nup214 (human) [3] = target: LacI-CFP-Nup214 (human) (UniProt P35658); remark: listed apart in the source
LacI-CFP-sPom121 (human) [4] = target: LacI-CFP-sPom121 (human) (UniProt Q96HA1); remark: listed apart in the source

Sequence of LacI-CFP-sPom121 (human) (Q96HA1 whole entry): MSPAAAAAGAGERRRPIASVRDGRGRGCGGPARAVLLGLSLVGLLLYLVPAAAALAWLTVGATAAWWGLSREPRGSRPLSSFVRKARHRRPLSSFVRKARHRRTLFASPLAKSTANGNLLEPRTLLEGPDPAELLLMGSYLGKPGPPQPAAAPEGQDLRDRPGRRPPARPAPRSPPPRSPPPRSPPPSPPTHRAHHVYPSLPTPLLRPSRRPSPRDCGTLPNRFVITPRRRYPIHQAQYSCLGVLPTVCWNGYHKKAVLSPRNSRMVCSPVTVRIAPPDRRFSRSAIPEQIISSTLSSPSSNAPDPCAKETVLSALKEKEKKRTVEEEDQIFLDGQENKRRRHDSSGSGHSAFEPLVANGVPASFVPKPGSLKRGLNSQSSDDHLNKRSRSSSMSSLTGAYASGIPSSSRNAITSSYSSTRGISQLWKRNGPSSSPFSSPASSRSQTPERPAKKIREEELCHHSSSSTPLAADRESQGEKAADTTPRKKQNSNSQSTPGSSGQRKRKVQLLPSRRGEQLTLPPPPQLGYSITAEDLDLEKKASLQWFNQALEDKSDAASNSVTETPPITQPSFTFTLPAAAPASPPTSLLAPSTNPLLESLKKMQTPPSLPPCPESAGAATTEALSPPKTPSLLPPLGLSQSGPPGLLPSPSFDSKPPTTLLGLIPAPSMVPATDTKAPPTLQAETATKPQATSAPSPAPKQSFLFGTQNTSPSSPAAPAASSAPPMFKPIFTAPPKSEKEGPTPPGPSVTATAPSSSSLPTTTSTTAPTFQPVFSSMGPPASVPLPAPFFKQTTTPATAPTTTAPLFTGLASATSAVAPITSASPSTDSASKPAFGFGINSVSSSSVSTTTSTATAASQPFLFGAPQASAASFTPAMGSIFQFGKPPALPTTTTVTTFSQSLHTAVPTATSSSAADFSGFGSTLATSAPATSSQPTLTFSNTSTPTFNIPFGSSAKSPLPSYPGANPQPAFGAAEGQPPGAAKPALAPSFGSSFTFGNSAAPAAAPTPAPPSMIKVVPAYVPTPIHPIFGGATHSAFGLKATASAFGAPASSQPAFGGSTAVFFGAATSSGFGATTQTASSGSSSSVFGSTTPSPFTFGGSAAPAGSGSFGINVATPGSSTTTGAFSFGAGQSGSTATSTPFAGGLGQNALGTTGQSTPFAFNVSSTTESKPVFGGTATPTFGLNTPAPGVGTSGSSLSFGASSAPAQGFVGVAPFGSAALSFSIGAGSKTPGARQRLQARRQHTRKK
Sequence of LacI-CFP-mNup85 (mouse) (Q8R480 whole entry): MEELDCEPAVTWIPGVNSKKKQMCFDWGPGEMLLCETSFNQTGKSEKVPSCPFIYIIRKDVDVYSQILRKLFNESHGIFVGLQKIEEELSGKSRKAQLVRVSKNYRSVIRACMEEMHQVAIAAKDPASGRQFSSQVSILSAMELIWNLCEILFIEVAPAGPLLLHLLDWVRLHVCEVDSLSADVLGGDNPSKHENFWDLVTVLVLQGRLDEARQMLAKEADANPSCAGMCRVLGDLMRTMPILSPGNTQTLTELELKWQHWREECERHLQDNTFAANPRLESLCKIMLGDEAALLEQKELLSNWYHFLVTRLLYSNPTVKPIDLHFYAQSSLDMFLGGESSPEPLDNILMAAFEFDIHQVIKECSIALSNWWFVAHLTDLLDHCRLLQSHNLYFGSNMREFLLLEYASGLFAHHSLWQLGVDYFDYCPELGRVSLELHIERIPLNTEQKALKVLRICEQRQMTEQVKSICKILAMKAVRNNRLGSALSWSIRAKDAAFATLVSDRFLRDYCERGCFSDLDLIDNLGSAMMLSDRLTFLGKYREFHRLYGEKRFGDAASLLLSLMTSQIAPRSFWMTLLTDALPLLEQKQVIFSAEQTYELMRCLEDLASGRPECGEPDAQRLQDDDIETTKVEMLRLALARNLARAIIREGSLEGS

- percent of transfected cells showing colocalization (LacI-CFP-sPom121 (human) [1]): 7%
Substance: Nup85 (endogenous) (from UniProt Q9BW27 1-656) (natural protein)

- percent of transfected cells showing colocalization (LacI-CFP-Nup153 (human)): 6%
Substance: Nup214 (endogenous), P35658 1-2090 (natural protein; other documents disagree on this pair)

- percent of transfected cells showing colocalization (LacI-CFP-Nup153 (human)): 65%
- percent of transfected cells showing colocalization (LacI-CFP-mNup85 (mouse)): 9%
- percent of transfected cells showing colocalization (LacI-CFP-Nup53 (human)): 34%
- percent of transfected cells showing colocalization (LacI-CFP-Nup50 (human)): 37%
- percent of transfected cells showing colocalization (LacI-CFP-Nup214 (human) [2]): 40%
- percent of transfected cells showing colocalization (LacI-CFP-Nup107 (human)): 72%
- percent of transfected cells showing colocalization (LacI-CFP-Nup58 (human)): 13%
- percent of transfected cells showing colocalization (LacI-CFP-Nup133 (human)): 62%
- percent of transfected cells showing colocalization (LacI-CFP-Nup98 (human)): 16%
- percent of transfected cells showing colocalization (LacI-CFP-Nup214 (human) [3]): 45%
Substance: ELYS (endogenous), Q8WYP5 1-2266

- percent of transfected cells showing colocalization (LacI-CFP-Nup133 (human)): 23%
Substance: Nup214 (endogenous), P35658 1-2090 (natural protein)

- percent of transfected cells showing colocalization (LacI-CFP-sPom121 (human) [1]): 2%
Substance: Nup53 (endogenous) (from UniProt Q8NFH5 1-326) (natural protein)

- percent of transfected cells showing colocalization (LacI-CFP-sPom121 (human) [1]): 89%
Substance: Nup62 (endogenous) (from UniProt P37198 1-522) (natural protein)

- percent of transfected cells showing colocalization (LacI-CFP-sPom121 (human) [1]): 72%
- percent of transfected cells showing colocalization (LacI-CFP-sPom121 (human) [4]): 74%
Substance: Nup98 (endogenous) (from UniProt P52948 1-880) (natural protein)

- percent of transfected cells showing colocalization (LacI-CFP-sPom121 (human) [1]): 14%
Substance: ELYS (endogenous) (from UniProt Q8WYP5 1-2266) (natural protein)

- percent of transfected cells showing colocalization (LacI-CFP-sPom121 (human) [1]): 68%
- percent of transfected cells showing colocalization (LacI-CFP-sPom121 (human) [4]): 71%
Substance: Nup93 (endogenous) (from UniProt Q8N1F7 1-819) (natural protein)

- percent of transfected cells showing colocalization (LacI-CFP-sPom121 (human) [1]): 8%
Substance: Nup133 (endogenous) (from UniProt Q8WUM0 1-1156) (natural protein)
